doi:10.1101/830265
Read-outs that look alike come from different tables or passages of the source.

Key:
[1] = biological target: total gliadin fraction (Triticum aestivum); experiment: turbidimetry
[2] = biological target: total gliadin fraction (Triticum aestivum); experiment: turbidimetry; remark: listed apart in the source
[3] = biological target: total gliadin fraction (Triticum aestivum); experiment: turbidimetry; remark: listed apart in the source
[4] = biological target: γ-gliadin (Triticum aestivum) (UniProt P08453); experiment: SPR
γ-gliadin (Triticum aestivum), sequence (P08453 20-327): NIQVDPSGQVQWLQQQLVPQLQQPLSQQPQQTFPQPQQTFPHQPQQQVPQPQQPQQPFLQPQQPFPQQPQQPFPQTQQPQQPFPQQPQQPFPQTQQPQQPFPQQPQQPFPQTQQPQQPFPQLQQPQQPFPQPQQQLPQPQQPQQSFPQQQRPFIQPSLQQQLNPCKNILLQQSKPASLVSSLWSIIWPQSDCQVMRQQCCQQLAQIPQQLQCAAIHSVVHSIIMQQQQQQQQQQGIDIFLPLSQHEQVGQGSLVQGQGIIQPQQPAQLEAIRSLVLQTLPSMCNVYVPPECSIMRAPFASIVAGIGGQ

[5] = biological target: α-gliadin (Triticum aestivum); experiment: SPR

B1: puroindoline A (natural protein)
chain: DVAGGGGAQQCPVETKLNSCRNYLLDRCSTMKDFPVTWRWWKWWKGGCQELLGECCSRLGQMPPQCRCNIIQGSIQGDLGGIFGFQRDRASKVIQEAKNLPPRCNQGPPCNIPGTIGYYW
Kd [1]: 1000 nM
Kd [2]: 400 nM
Kd [3]: 600 nM
Kd [4]: 630 nM
response at equilibrium at 2.5 µM PINA [4]: 34 RU
Kd [5]: 4.45 µM
response at equilibrium at 2.5 µM PINA [5]: 160 RU
